Results taken from a protein production outcome set (Wang et al. 2014).

Experiment: label from the status in PepcDB records

Sequence	protein production
MSENTKVEAKRVFIGAGCNRVVNNVSWGASGLVSFGAQNAVAVFCPKTAQILTTLPGHKASVNCTHWLPTSKFAFKAKKLDRQYLLSGDSDGIIILWELSTLNNDQQWRHVLQLPLSHKKGVTCITAYMVSETDAMFASASSDGVVNVWDVSFPSQPSEECKVVCLDSICVDTKAIVTLSLAELPQNPGRFALALGGLDNKIKLYSGERTGKFTSVCELKGHTDWIRSLDFSLPLHTTEEIPNSIMLVSSSQDKVIRIWKLVLVGDVGSWRREITLASYIEGPVFVSGTFTYQISVESVLIGHEDWVYSVEWQPPVIDFIDGRLVNHQPLSILSASMDKTMMIWRPEKKTGVWVNVVCVGELSHCALGFYGGHWSPNSLSILAHGYGGAFHLWRNVSSSKESENWQMQKVPSGHFAAVTDVTWARTGEYLLSVSQDQTTRVFSAWKNDEGNEAEDEHWHELARPQVHGHDINCVAMVQGKGNHRFVSGAEEKVVRVFEAPLSFLKTLNHTCAGGEGSFPEDLQADVQVLGANMSALGLSQKPIYLHSSSEPLERNGGGEGLDTFETVPEAAPAELKEPPIEDQLAFHTLWPESHKLYGHGNELFSLCSDHKGNLVASSCKAQSASMAEIWLWEVGTWKAVGRLQSHSLTVTHLEFSYDDTLLLSVSRDRHFSVFSIQRTDNGEVSHKLMAKVEAHKRIIWACSWNPFGHQFATSSRDKTVKIWSVENDARIKQILVLPPFGSSVTAVAWTGLDRNEKSGCVAVGMESGLIELSNVKIIETEEGTTATAALALRLEPFMCHVSAVNRLAWRPTEKCESNQSLRWLTSCGDDNCVRVFNFKF	failed
MFNDWRRVLALSGKALGAILFCEAVGLLAAWVTQTSVTTWYPTLTKPSFTPPNWVFAPAWTTLYALMGVAAFLVWRCGPDRTRVRTALTAFGLQLAANAGWSFAFFGARSPALGLVVILGLWGLLAWTMDRFFRVRPVAGWLLVPYLAWVTYALALNAAIWGLN	failed
MSLSALESSSRFEVRYFFERALECYKPFSDTVLLLPCTARKPYLTSRTHRALRSKVKVNVNEIIISSPLVVPREFELLYPAVNYDTPVTGHWSEEEVSFVAGWLKRFIEKGGFRKVVAHVTGGYRKVVERVEDEVEAEVVYTAEKDVLSDESIERLKQEIESKGKVDLYRRILEHMLSYQFGITWSGKVAGRYPELELLEGKKRLARVDRIYGMLDIYEKIAAYLLEKNIYTVEIGDFEVKGTIFAGGVLRADEKIRPNDVVVFHNSRIFGVGLAAMSGKEMAGSEKGIAINVKRKFSEGHHHHHH	not failed
MATIDLVRHAEPDITIHDDFLRPLTSAGQRQTQQLVDSLHQYPYTAFFSSPLKRAVDTITPIADDHGLPVQKNELLVERKMPAWLPNFSDYVNQQWQDLTFFEKPGESIHQVQERYLSFLYGLPSSAFVAVGSHGTAISSLVEAAIPGIGYHFFSKLGYAAVTRIEMHAGNMVHLAVWEPKSKTFKVLK	failed
MISNFIKRAITGILFVAILVGCILYNSFSFGILFMAISALTIYEFGQLINSRAEGVNVNKTIIMLGGAYLFLAVMGFCIDAADSKIFIPYLLLLLYLMISELYLKKASSMLNWAYSMLSQLYIGLPFALLNVLAFHTDPEYSSVSYNPILPLSIFIFLWLSDTGAYCVGSLIGKHRLFERISPKKSWEGSIGGGVVAIGASFVLAHYFTIMSMWEWAGLALVVVVFGTWGDLTESLLKRQLHVKDSGTILPGHGGMLDRFDSALMAIPAAVFYLYALTWF	failed
MNAAQVQALIRMGLPMAEDIDFRVERLDERHALARIPFHGKLVRPGGTLSGPTIMALADAAMYAVILGRLGAVEMAVTSNLNINFLSKPRPEDLLAEASILKLGRRQVVCEVGVFSQSNEEDLVAHVTGTYALPLLEHHHHHH	not failed
MNHYFRAIGSMLILVYSTFFAIFFIDKVFVNIMYFQGMFYTQIFGIPVLLFLNLMVILLCIIVGSVLAYKINQQNHWLKDQIERSIEGQTVGINDQNIELYNETIELYQTLVPLNQEVHKLRMKTQNLTNESYNINDVKVKKIIEDERQRLARELHDSVSQQLFAASMMLSAIKETELKAPLDQQIPVLEKMIQDSQLEMRALLLHLRPIGLKDKSLGEGIKDLVVDLQKKVPMKVVHDIEEFKVPKGIEDHLFRITQEAISNTLRHSKGTKVTIELFNREEYLLLRIQDNGKGFNVDDKVEQSYGLKNMRERALEIGATFHIVSLPDAGTRIEVKAPLNKEDSNAD	failed
MINDIKILGVGGSPRKNGNTDVLLDSFLKGAESAGVETKKVLLRDYSIEPCIGCERCRKTGTCTRFHDGMSLLYPEIEAAKGLTLGSPTYNYNVTALMKAFIDRLYPYYNFTNVRPRRYSSKLAGQGRKAIVFSVCEQLEIEEMGFTLGALGMPLEALGYEIVEKFPVTGYFDRGAVSRDEELLRKTFEAGKKMAEALHLEHHHHHH	failed
MNDADSLQDYQRVRQQAIRSLFEIVEGSSEGTVIVDREARIVWINQRYAQRFGLADPAQAIGRPCESVIPGSLLREVVGSGKPILLDMMDSAKDPLVVMRLPIHDDAGEVIGAIGFALLDELRSLSPLVTRYLSMQRELASTRSQLQARQAKYSFSHFVGTSPVSLEVKRRARRGAASEAPVLLLGETGTGKELLAHAIHSASPRAHKAFVSVNAAAIPESLLEAEFFGTAPGAFTGAERKGRPGKLQVAQGGTLFLDEIGDMPLALQGKLLRVLQEKEFEAVGSNEVIRSDIRLVAATSIDLQQAMREGRFRADLYYRLNVLPIEIPPLRQRLDDLPALCESILDSLDHGRLHELGGDALALLARHAWPGNVRELRNVLERALLLADQRLLDAAALGAALGPLQPLPELPRAADDRPVGDFQQAREAFERDLIGRALAQSAGNVVEAAKRLGLGRSTLYKKIVALGMRLDSGTRLEIETN	failed
VDKINPDLRVHLRLDRGEAILSLDLSGHSLHQRGYRLQQGAAPLKENLAAAILIRAGWPRIAAEGGALADPMCGVGTFLVEAGMIAADIAPNIKRERWGFSAWLGHVPTLWRKLHDEALARAEAGLAKTPSWIRGYEADPRLIQPGRNNIERAGLSDWIKVYQGEVATFEPRPDQNQKGLVICNPPYGERLGDEASLLYLYQNLGERLRQACLNWEAAVFTGAPDLGKRMGIRSHKQYSFWNGALPCKLLLIKVTPDQF	failed
MTWCSLSVISCTRFYSRQRTAMLNSLKQEKFLLLALLAAVAAYPLEHLLLGSGQGIALGAGLVLIGFIVMASMRVAHHAELLAEKVGDPYGTMILTLAAVLVEVVILAIMMSNEASPTLVRDTIYSAVMLDINGILGLAALMGGIKHGEQPYNDDSARTYSVMILTAMGVSMVVPEFIPEADWKVYSAFTIGAMVVLYTLFLRMQVGPHSYFFSYSYPEKRRNKEAQEQPHAINLAWSIGILVFGVVVIGALAEVMSKTLDLGLEGTGAPPVITAILVAAISAAPEILTALRAALANRMQSVVNVALGASLSTVILTVPVMEAMALYTGQPFQMAMTPVQTVMVFITLIVSAINLNDGETNAIEGMTHFVLFATFIMLSLLGL	failed
MTITTERGSQQYAYTDLPRLMGLMTGDEKHGPAATSTLDALWVLYDRVLRVAPERVDEPGRDRFLLSKGHGPMAYYAVLAAKGFLPVDWLPDFGSYDSPLGHHPDRVLVPGAEIGSGSLGHGLPIAVGTALGLRAQGLGEPRVWVLTGDAELDEGSNHEAIAYAGAAGLERLHTIVIDNSSATHALTGGIAARFEAAGWATTTVDGHDHEALHAAFTAPHEGRPLAVVARVRPKDA	failed
KQFPGYPEFVLVEIETQRGCPKAMGIGGCSFCTEPVRYKVVENRPQEYVAQEVETFYNMGIRHFRIGRQSCIFSYKARPNGRVPIPKPEEVEKLFKAVRLAAPNVKTLHVDNANPAVIANYPEESRRIAKAIIEYGTPGNVVAFGLETADPKVARINNLNATPEETYEAVKIINEVGGRRGYNGLPWLLPGINIIFGLPGETKRTYELTYEFLKKILDDGLMVRRINIRQVVVFPGTPLWNMRDKVKTEKHKALIEHYRHKIRHEIDLPMLKRVVPVG	failed
MICVYTEDRWADILAAVASVRAQSRPARETLLVVDHHQTLLERLSREYKEVPEVRVLANAGPRGLSAGRNTGIAASHGEIIAFLDDDAVAERDWLRHFAEGYEDPRVMAVGGRTMPIWASGRRPAWFPEEFDWVVGCTYKGLPPGRVRVRNVLGGNASFRRTAFDAAGGFATGIGRDGDKRPLGCEETELCIRLTRARPDAILLIDDRAVIHHRVPEPREHFAYFRTRTYAEGLSKALVARSVGAGKGLESERRYTTRVLPAGVARGLRDAALARPGGAGRAGAIVAGVLTAAGGYVLGSVRARRGGATFSVVEPPDSEGEAA	failed
MRYRDNLKRSLKQAALAAGLLMTMSCAVRATPQDDLRSAVEYNRPALVQKLVAQGVDPNLDTRDGTPLLVDALKDKNIDVAEALIRAKGLDFERANAAGENALMMAAYQGLLPLVRLMVETYDVEVNKTGWTALHYAATNGHDAIVQYLLDHGAYIDAESPNGTTPLMMATMGGQITTVKLLLDEGADMNLRNQQKMDVIDFAKRYHQDEIAAGLESRRRKLAEPGAQPVPARQPAAPAGMRPAAPVVPDVPAPMPAPRAPESAIDRDATSGLPGSLSDQKTVPPPDLRGN	failed
QSNVVIMQDPGGGYGDALRKVMYDPFEKETGIKVVTVQEARSGPRIKAQAEAGKAQWDLTFIFDQETKLLGDCCLADIDYSKLSESAHKTLAAMPDNLKRKKGVALQVIGVGLVYNKDKFKGDKAPQTWADFWDVKKFPGRRCMPAWPRFTFEAALMADGVTKDKLYPIDMDRALKKLKEIKPHVVKWWTTAAQPPQLILDGEADMCLAYTGSMSKLALEGAPIDLTFNQGFVYYDFFSIPKGAPNYDNALKLLSWRLDPKRAAQLTSTFPVALPSKVVFDAATDKNIARYWANNPENVAKAIEWSPDFWGAPSPAGNSTNEEYGQEKLNAMLAQ	not failed
MGKTLTGFHLKVIGVISMVFDHLLQFFSFLGVPGWFGWIGRIAAPIFLFESSEGFIHTSNRRKYMFRLLLGFWIMGILNGFLNAYFSTGGLIINNIFGTLFLGTVYMQSMDYFKQKQIGKGLLWFIVPLLISALPLVVFSSPDILSNPAILIGFQIFNLIVPSLMMTEGGFLFVLLAVAFYLFHGKKWLQISAIGVVALISAASYNFQELFGVNHQWMMILAAIPIVLYNGEKGRGMRNFFYIFYPAHIAIFAIISFFMQR	failed
MMKIFIRILLLFYYVFILLACGDKKESISINYILMARVTNMQTDEIKIDTPSRTIFIKLITGGDLSNVHVNLTLAKGVEMVEPANTESVYDFTKPASVTLKYKEEIITYHFIIDTEYNIVDPATLGWVKSTEWGTLPDYLAIYKSPSTLKGKNAVAYIAVADMDKNASFSVLGNATGVKTLTQFYNAESVKPAIVMNGGYFASNGATVSLLYRNNVMLAPNLQSMSRSDGTSNVAFYPTRSAFGEIENGKFEVNWVYTVSSGQTYAYPAPSPNKSGVSPMQIPSVNYPEGASIWKAKNAIGGGPVLLKNGLYKNTWEAELFDTASGIGPTSNNPRSAIGITGDNRLIFFVCEGRNKTPNVPGFTLEEVAYILRDLGCLDAMNLDGGGSSCMLVNGQETIKPSDGAQRSVTTAVAIK	failed
MDMRSHEMIERRREDNGNNNGGVVISNIISTNIDDNCNGNNNNTRVSCNSQTLDHHQSKSPSSFSISAAAKPTVRYRECLKNHAASVGGSVHDGCGEFMPSGEEGTIEALRCAACDCHRNFHRKEMDGVGSSDLISHHRHHHYHHNQYGGGGGRRPPPPNMMLNPLMLPPPPNYQPIHHHKYGMSPPGGGGMVTPMSVAYGGGGGGAESSSEDLNLYGQSSGEGAGAAAGQMAFSMSSSKKRFRTKFTTDQKERMMDFAEKLGWRMNKQDEEELKRFCGEIGVKRQVFKVWMHNNKNNAKKPPTPTTTL	failed
MSSNVPADMINLRLILVSGKTKEFLFSPNDSASDIAKHVYDNWPMDWEEEQVSSPNILRLIYQGRFLHGNVTLGALKLPFGKTTVMHLVARETLPEPNSQGQRNREKTGESNCCVIL	not failed
MLKTPSDAAVAGCLSLLLEVSGNPKAGNVDREHDFDDLKFEHFLASAAGAFPAFLEVAEKRIIGEGVLRAVKESMRWHRAENVHFGAFLLLVPLISSWDAG	not failed
MKEIQYEIVKEIAVLSASDSGYTKEINLISWNGREPKYDIRSFSPNREKCGKGITLNADEAAALLEALQKEVNSGD	failed
